From PMC12120882

Target: SlbHLH95 (GST fusion) (Solanum lycopersicum, UniProt A0A3Q7IJR5 1-380)
Experiment: EMSA

| Binder | binding result |
| --- | --- |
| SlCHS1 promoter E-box probe 2 (dsDNA) DNA 1: CTAAAAAAGTTGCTCAAACACGTGAAGACTAGCTACCGCCTA DNA 2: TAGGCGGTAGCTAGTCTTCACGTGTTTGAGCAACTTTTTTAG | no binding |
| SlCHS1 promoter E-box probe 1 (dsDNA) DNA 1: AAGCCATTTTCTCTTCTTCACTTGCTAAAATTTGTATAATAT DNA 2: ATATTATACAAATTTTAGCAAGTGAAGAAGAGAAAATGGCTT | no binding |
| SlFLS promoter E-box probe 2 (dsDNA) DNA 1: ATTATACATACAAAATATCAATTGCAAGCTCTGATTTTATGT DNA 2: ACATAAAATCAGAGCTTGCAATTGATATTTTGTATGTATAAT | binds |
| SlFLS promoter E-box probe 3 (dsDNA) DNA 1: TAAAAAGCTGTTTATCAGCACTTGTTTGCCAAACACATCAAC DNA 2: GTTGATGTGTTTGGCAAACAAGTGCTGATAAACAGCTTTTTA | no binding |
| SlCHS1 promoter E-box probe 3 (dsDNA) DNA 1: TTTATACAGTTCTCTGCCCAAGTGTCTTTCTCTTTCTTGTTT DNA 2: AAACAAGAAAGAGAAAGACACTTGGGCAGAGAACTGTATAAA | no binding |
